Sequences and labels used below:
B1: "Na(+)/H(+) exchange regulatory cofactor-like protein nrfl-1" (Caenorhabditis elegans), G5EDM4-1 (parent)
chain: MVHIPSDVTPPRLCVVEKLNGENEYGYNLHAEKGRGQFVGTVDPDSPAERGGLITGDRIFAVNGHSIIGENHKKVVERIKANPNRCEMLVISEEGAKWYNENNVQITLDLPNIERVSPMSKETPVFVPPPPPPTDAMPYLPRLAELNKGTPDQEFGFNLHAERGRGHFIGTVDAGGIGEKAGLEAGQRIVGVNGQLIYPTTGHKEVVALIKKDTMKTTLLVASEDVDKYHKDHNIAYSWDNVERVDTRPVINVETHHHHEEVSVPKSNGYDVPPLNPHSIQVNEEREISKMTTTTRTETITNSNSAYQYKESSTAYDAYATPPVDSNDLMDEVFGRVNLPGVTMSSHTEVLPPTDDISSVSSLSSHRESAVDVPVSHQYVPSYATESHQKHEQHSQTHHHHHQHQQPSPLSNGSSHGYAASSTSGYDDDDIYHLSAREARERLRMKNRKHHLHEMSLNEKYQLVSNM
partner: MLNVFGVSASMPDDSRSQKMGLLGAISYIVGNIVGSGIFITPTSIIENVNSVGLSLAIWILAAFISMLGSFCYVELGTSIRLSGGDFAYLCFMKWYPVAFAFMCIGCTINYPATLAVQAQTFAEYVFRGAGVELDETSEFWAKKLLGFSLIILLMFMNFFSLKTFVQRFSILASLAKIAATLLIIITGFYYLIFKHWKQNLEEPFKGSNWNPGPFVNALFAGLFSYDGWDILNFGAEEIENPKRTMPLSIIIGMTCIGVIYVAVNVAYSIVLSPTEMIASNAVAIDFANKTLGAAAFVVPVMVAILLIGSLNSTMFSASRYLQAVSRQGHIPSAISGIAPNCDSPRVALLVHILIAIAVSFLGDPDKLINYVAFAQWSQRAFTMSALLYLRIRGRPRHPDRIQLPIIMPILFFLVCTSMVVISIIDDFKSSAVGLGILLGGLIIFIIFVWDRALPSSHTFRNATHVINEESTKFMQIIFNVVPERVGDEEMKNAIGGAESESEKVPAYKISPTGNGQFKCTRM

The experiment covers variants of B1. The following applies: with aat6_caeel aat-6, Q22397.
Take G26A;Y27A;E154A;F155A: the “effect of a mutation on the interaction” value is reported as “disrupting interaction strength”. Turning to G26A;Y27A, the “effect of a mutation on the interaction” value is “with no effect”. In the case of E154A;F155A, the “effect of a mutation on the interaction” value is “decreasing interaction strength”.
